Laboratory results published in patent publication US20250011471A1 (published 2025).
One block for each binder: values may come before it.

Biological target: KLB + bFKB1
Assay: SPR; preformed bFKB1/KLB complex

- koff: 0.00291 s⁻¹
B1: FGFR1c (receptor)
chain: RPSPTLPEQAQPWGAPVEVESFLVHPGDLLQLRCRLRDDVQSINWLRDGVQLAESNRTRITGEEVEVQDSVPADSGLYACVTSSPSGSDTTYFSVNVSDALPSSEDDDDDDDSSSEEKETDNTKPNPVAPYWTSPEKMEKKLHAVPAAKTVKFKCPSSGTPNPTLRWLKNGKEFKPDHRIGGYKVRYATWSIIMDSVVPSDKGNYTCIVENEYGSINHTYQLDVVERSPHRPILQAGLPANKTVALGSNVEFMCKVYSDPQPHIQWLKHIEVNGSKIGPDNLPYVQILKTAGVNTTDKEMEVLHLRNVSFEDAGEYTCLAGNSIGLSHHSAWLTVLEALEERPAVMTSPLYLE

- koff: 0.0402 s⁻¹
B2: FGFR1b (receptor)
chain: RPSPTLPEQAQPWGAPVEVESFLVHPGDLLQLRCRLRDDVQSINWLRDGVQLAESNRTRITGEEVEVQDSVPADSGLYACVTSSPSGSDTTYFSVNVSDALPSSEDDDDDDDSSSEEKETDNTKPNRMPVAPYWTSPEKMEKKLHAVPAAKTVKFKCPSSGTPNPTLRWLKNGKEFKPDHRIGGYKVRYATWSIIMDSVVPSDKGNYTCIVENEYGSINHTYQLDVVERSPHRPILQAGLPANKTVALGSNVEFMCKVYSDPQPHIQWLKHIEVNGSKIGPDNLPYVQILKTAGVNTTDKEMEVLHLRNVSFEDAGEYTCLAGNSIGLSHHSAWLTVLEALEERPAVMTSPLYLE
